Measurements reported in patent publication US20050233963A1 (priority 2000, published 2005).

Columns and labels:
HIV-1 = HIV-1 particle release, p24 antigen capture ELISA in transfected HeLa cells; assay type: cell-based, human immunodeficiency virus type 1; details: co-expression in HeLa cells
Procedure: FIG. 20B: Alternatively, HeLa cells were co-transfected with 1 μg of Vpu^+ or Vpu^− proviral genomes and 10 μg pHIV-TARluc (Luc) or pHIV-FTPR. Thirty-six hours after transfection the amount of p24 Gag in the media and cell pellets was quantified using an antigen capture ELISA. The relative particle release is given by the ratio of extracellular to intracellular p24. The data were normalized to the control (Luc). The error bars represent the error of the mean for three independent experiments.
Triplicate plates of 5×10^5 HeLa cells were transfected with 1 μg of Vpu^+ (MSMBA) or Vpu^− (DF101) proviral genomes and 10 μg of pHIV-UBP, pHIV-UBP-N, pHIV-FTPR or pHIV-TARluc. Thirty-six hrs after transfection, media were harvested and centrifuged at low-speed to remove cellular debris. The cells were washed with 1×PBS, resuspended in 1 ml of PBS, then pelleted at 5000×g in microfuge tubes. The cell pellets and media were treated with lysis buffer and applied to an HIV-1 p24 antigen assay kit following the instructions of the manufacturer (Coulter, Westbrook, Maine). Samples were processed along with positive controls to give quantitative levels of p24 Gag. Data were plotted as a function of the relative p24 units.

hsc70 = molecular target: T1, hsc70 (Bos taurus, UniProt P19120); assay: UBP far-western analysis on hsc70; assay type: binding; details: GST fusions as probe
T1 construct: purchased Stressgen
T1 sequence (P19120 2-650 limits assumed): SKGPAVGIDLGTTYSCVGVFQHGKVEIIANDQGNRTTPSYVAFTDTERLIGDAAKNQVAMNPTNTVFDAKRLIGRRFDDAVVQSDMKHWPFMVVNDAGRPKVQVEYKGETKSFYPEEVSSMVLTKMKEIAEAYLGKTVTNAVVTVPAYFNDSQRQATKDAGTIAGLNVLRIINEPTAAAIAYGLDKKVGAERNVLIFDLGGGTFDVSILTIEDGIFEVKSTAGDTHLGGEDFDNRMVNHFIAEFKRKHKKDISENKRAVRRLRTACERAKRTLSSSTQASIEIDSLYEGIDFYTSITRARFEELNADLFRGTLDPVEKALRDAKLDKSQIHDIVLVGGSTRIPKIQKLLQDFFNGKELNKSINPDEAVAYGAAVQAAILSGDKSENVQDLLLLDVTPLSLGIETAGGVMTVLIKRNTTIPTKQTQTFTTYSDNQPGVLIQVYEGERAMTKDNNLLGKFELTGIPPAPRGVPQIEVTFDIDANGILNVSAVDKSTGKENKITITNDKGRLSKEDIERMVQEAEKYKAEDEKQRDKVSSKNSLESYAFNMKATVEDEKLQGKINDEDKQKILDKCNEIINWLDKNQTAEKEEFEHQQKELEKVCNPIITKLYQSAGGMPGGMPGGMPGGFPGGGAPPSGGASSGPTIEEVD
From the text: FIG. 13A: Thirty μg of HeLa cell lysate was separated by SDS-PAGE in three identical lanes, blotted to nitrocellulose and probed with either, no probe (none), GST alone, or GST-UBP. The far-western blot was then developed with anti-GST antibody to reveal bands which interact with UBP. The arrow to the right indicates a 70 kD band detected by the GST-UBP fusion. The numbers to the left of each blot represent molecular weights in kilodaltons. […] FIG. 13C, Samples from the GST-UBP pull down assay were analyzed by western blot for the presence hsc70. At the bottom of the gel, the contents of each reaction are indicated by the plus symbols. The NaCl concentration of the washing buffer (100, 200, 300, and 500 mM) is indicated at the top of each lane. The arrow to the right of the blot indicates the position of the hsc70 band.
The term “hsc70” is used when referring to both hsp70 and its nearly identical constitutive counterpart, hsc70. […] The numbers to the left of the blots indicate the molecular weights in kilodaltons. The diagram below the blots indicates regions of UBP contained in each fusion construct. The column to the right summarizes the results, where a plus symbol indicates binding and a minus symbol indicates no binding.
Western blots were performed using standard techniques. Briefly, 30 μg HeLa cytoplasmic extract or 20 ng of hsc70, hsp70, or hsp90 were denatured in 1×SDS sample buffer. The samples were loaded on a 10% polyacrylamide gel. Separated protein was transferred to nitrocellulose membranes. The membranes were blocked in 5% dry milk protein in TBS (20 mM Tris [pH 7.4], 100 mM NaCl) for 45 min. The gels with proteins separated on them were transferred to nitrocellulose and blocked against 5% dry milk protein in TBS for 45 min. Primary antibody, either anti-hsp70 or hsp90 monoclonal antibodies, or anti-UBP rabbit polyclonal antibody was incubated with the blots at appropriate concentrations (1:1000 dilutions for each) in 5% milk protein in TBS for 2 hours at 4° C. with gentle rocking. The membranes were washed with TBS for 10 minutes. […]

| Molecule | efficiency of virus particle exit (extracellular to intracellular p24 Gag) (HIV-1; Vpu present) | efficiency of virus particle exit (extracellular to intracellular p24 Gag) (HIV-1; absence of Vpu) | interaction with hsc70 (hsc70) |
| --- | --- | --- | --- |
| N 1/2: N-terminal portion of UBP (a.a. 1-145) (protein, left off: a dimerising Fc or GST) MDNKKRLAYAIIQFLHDQLRHGGLSSDAQESLEVAIQCLETAFGVTVEDSDLALPQTLPEIFEAAATGKEMPQDLRSPARTPPSEEDSAEAERLKTEGNEQMKVENFEAAVHFYGKAIELNPANAVYFCNRAAAYSKLGNYAGAV | slight increase | did not significantly increase | did not detectably interact |
| FTPR: UBP fragment containing TPR 2-4 with flanking charged residues (a.a. 81-209) (protein) TPPSEEDSAEAERLKTEGNEQMKVENFEAAVHFYGKAIELNPANAVYFCNRAAAYSKLGNYAGAVQDCERAICIDPAYSKAYGRMGLALSSLNKHVEAVAYYKKALELDPDNETYKSNLKIAELKLREA | slight increase | did not significantly increase |  |
| TPR 2-4 (protein, left off: a dimerising Fc or GST) KTEGNEQMKVENFEAAVHFYGKAIELNPANAVYFCNRAAAYSKLGNYAGAVQDCERAICIDPAYSKAYGRMGLALSSLNKHVEAVAYYKKALELDPDNETY |  |  | capable of stable interaction |
| C 1/2: C-terminal half of UBP (a.a. 145-313) (protein, left off: a dimerising Fc or GST) VQDCERAICIDPAYSKAYGRMGLALSSLNKHVEAVAYYKKALELDPDNETYKSNLKIAELKLREAPSPTGGVGSFDIAGLLNNPGFMSMASNLMNNPQIQQLMSGMISGGNNPLGTPGTSPSQNDLASLIQAGQQFAQQMQQQNPELIEQLRSQIRSRTPSASNDDQQE |  |  | did not detectably interact |
